From publication PMC5925078 (2018)

Key:
[1] = biological target: T1, TNFR2 variant in which the intracellular binding site for TRAF2 has been substituted by YFP (UniProt P20333 23-461); assay: cells co-expressing PGRN
T1 chain: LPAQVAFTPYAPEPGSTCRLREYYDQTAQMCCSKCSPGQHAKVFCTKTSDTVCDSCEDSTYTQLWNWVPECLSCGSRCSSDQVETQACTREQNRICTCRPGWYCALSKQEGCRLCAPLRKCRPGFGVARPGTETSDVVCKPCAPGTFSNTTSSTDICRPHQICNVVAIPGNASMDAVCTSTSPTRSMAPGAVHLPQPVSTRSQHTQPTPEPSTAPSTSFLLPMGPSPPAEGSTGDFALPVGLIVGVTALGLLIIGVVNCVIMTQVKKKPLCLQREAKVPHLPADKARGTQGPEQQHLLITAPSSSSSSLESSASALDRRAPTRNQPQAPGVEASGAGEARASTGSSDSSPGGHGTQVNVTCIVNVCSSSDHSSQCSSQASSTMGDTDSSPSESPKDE

[2] = biological target: T1, TNFR2 variant in which the …; assay: cells, second transfection empty vector

- Kd [1]: 49 pM
- Kd [2]: 36 pM
B1: GpL-Flag-TNC-TNF (ligand)
chain: ACGCAAAPDIKDLLSRLEELEGLVSSLREQSDKPVAHVVANPQAEGQLQWLNRRANALLANGVELRDNQLVVPSEGLYLIYSQVLFKGQGCPSTHVLLTHTISRIAVSYQTKVNLLSAIKSPCQRETPEGAEAKPWYEPIYLGGVFQLEKGDRLSAEINRPDYLDFAESGQVYFGIIAL
